In paper PMC3340929 one finds Kd data, which are given here for six substances.

The target of this test is NFS1–ISD11–ISCU2 protein complex (SDU) (human) (UniProt Q9HD34). In words: enzyme activity titration.
For “FXN N146A variant (from UniProt Q16595 82-210) (natural protein)”, the Kd was 1.35 µM. The same measure for “FXN N146K variant (FRDA missense mutation) (from UniProt Q16595 82-210) (natural protein)”: 6.25 µM. The same measure for “FXN Q148G variant (from UniProt Q16595 82-210) (natural protein)”: 2.17 µM; for “FXN Q148R variant (FRDA missense mutation) (from UniProt Q16595 82-210) (natural protein)”: 0.85 µM. As to “FXN Q153A variant (from UniProt Q16595 82-210) (natural protein)”, the dissociation constant (Kd) worked out at 7.5 µM. Under “FXN R165C variant (FRDA missense mutation) (from UniProt Q16595 82-210) (natural protein)” stands 10.4 µM.
